Experimental data from article PMC8546688, “Streptococcus suis MsmK: Novel Cell Division Protein Interacting with FtsZ and Maintaining Cell Shape” (mSphere, 2021).

B1: His-tagged FtsZ (filamentous temperature-sensitive protein Z) (natural protein, Streptococcus suis, UniProt A0A0H3MXZ7 1-409, looked up)
chain: MAFSFEAAASHGAVIKVIGVGGGGGNAINRMIEEGVAGVEFIAANTDVQALSSSKAETVIQLGPKLTRGLGAGGQPEVGRKAAEESEEALTNVLTGADMVFITAGMGGGSGTGAAPVIARIAKNLGALTVAVVTRPFGFEGNKRGNFAIEGIEGLREQVDTLLIISNNNLLEIVDKKTPLLEALSEADNVLRQGVQGITDLITNPGLINLDFADVKTVMENKGNALMGIGIGTGEDRVIEAARKAIYSPLLETTIDGAEDVIVNVTGGYDMTLTEAEDASEIVNQAAGQGVNIWLGTSIDETMKDEIRVTVVATGVRQDTADKPARHRTEAVSPRPSHRFDHSVASAPTRGAAQQTEAPKASAFGEWDLRRENLIRPTDTEPTSTVSVEKFTMDQDEDELDTPPFFRNR
notes: FtsZ, tubulin-like cell division protein of Streptococcus suis; The His tag is named for the SPR; also called His-FtsZ; source: purified

What was measured:
[1] = target: B1; assay: SPR; His-tagged FtsZ immobilized onto sensor chips as the ligand; MsmK constructs in concentration series as analytes; buffer without protein as negative control; conditions: both partners purified
[2] = target: the molecule itself; assay: transmission electron microscopy; FtsZ (0.6 μM) incubated with 2 mM GTP and/or 1 mM ATP in buffer P, 10 min at 37°C

Binder | Kd [1] | koff [1] | kon [1] | binding result [2]
His-tagged MsmK (multiple sugar metabolism protein K), full length (enzyme, Streptococcus suis, UniProt A0A0H3N1P0 1-376, looked up, MsmK, ATPase of the ABC-type carbohydrate transport system of Streptococcus suis; 378 amino acid residues, open reading frame of 1,137 bp; also called full-length MsmK; source: expressed and purified) MVQLNLKNIYKKYPNSEHYSVEDFNLDIKDKEFIVFVGPSGCGKSTTLRMIAGLEDITEGEAYIDGVLMNDVAPKDRDIAMVFQNYALYPHMTVFDNMAFGLKLRKYSKDEIKKRVEEAAQILGLTEFLERKPADLSGGQRQRVAMGRAIVRDAKVFLMDEPLSNLDAKLRVSMRTEIAKIHRRIGATTIYVTHDQTEAMTLADRIVIMSATKNPAGTGTIGRIEQIGSPEELYNRPVNKFVASFIGSPAMNFFTVTLQDGVLVGDGFKVELPEGRRKHLEEKGYNGKSFTLGIRPEDIKASQLELDTYPSSIVEAEVVVSELLGAETMLYSKVGSTEFVSRVDARDYHNPGDKVRLTFNLNKAHFFDDETSKAIV | ≤ 10 nM | ≤ 1e-05 s⁻¹ | 1000 M⁻¹ s⁻¹ | –
B1 | – | – | – | binds
N_MsmK (amino acids 1 to 234), His-tagged (domain or fragment, Streptococcus suis, UniProt A0A0H3N1P0 1-234, looked up, MsmK of Streptococcus suis, N-terminal domain, aa 1 to 234 of 378; also called N terminus of MsmK; N-terminal domain of MsmK; source: expressed and purified) MVQLNLKNIYKKYPNSEHYSVEDFNLDIKDKEFIVFVGPSGCGKSTTLRMIAGLEDITEGEAYIDGVLMNDVAPKDRDIAMVFQNYALYPHMTVFDNMAFGLKLRKYSKDEIKKRVEEAAQILGLTEFLERKPADLSGGQRQRVAMGRAIVRDAKVFLMDEPLSNLDAKLRVSMRTEIAKIHRRIGATTIYVTHDQTEAMTLADRIVIMSATKNPAGTGTIGRIEQIGSPEELY | 332 nM | 0.000332 s⁻¹ | 1000 M⁻¹ s⁻¹ | –
